Laboratory results reported in patent US20190359687A1 (Bayer, published 2019).

Legend:
Test in all cases: ELISA, biotin-peptide on streptavidin plate, Fab 1 ug/ml
[1] = target: T1, GP5-7 (human, biotin at the N-terminus)
T1 construct: GP5 with alanine at position 7 (V7A), already in the entry
T1 peptide: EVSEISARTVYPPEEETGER

[2] = target: T2, GP5-8 (human, biotin at the N-terminus)
T2 construct: GP5 with alanine at position 8 (R8A), already in the entry
T2 peptide: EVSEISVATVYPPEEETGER

[3] = target: T3, GP5-9 (human, biotin at the N-terminus)
T3 construct: GP5 with alanine at position 9 (T9A), already in the entry
T3 peptide: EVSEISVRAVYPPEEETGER

[4] = target: T4, GP5-10 (human, biotin at the N-terminus)
T4 construct: GP5 with alanine at position 10 (V10A), already in the entry
T4 peptide: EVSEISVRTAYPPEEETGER

[5] = target: T5, GP5-11 (human, biotin at the N-terminus)
T5 construct: GP5 with alanine at position 11 (Y11A), already in the entry
T5 peptide: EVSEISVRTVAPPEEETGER

[6] = target: T6, GP5-12 (human, biotin at the N-terminus)
T6 construct: GP5 with alanine at position 12 (P12A), already in the entry
T6 peptide: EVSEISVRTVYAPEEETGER

[7] = target: T7, GP5-13 (human, biotin at the N-terminus)
T7 construct: GP5 with alanine at position 13 (P13A), already in the entry
T7 peptide: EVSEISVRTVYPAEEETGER

[8] = target: T8, GP5-14 (human, biotin at the N-terminus)
T8 construct: GP5 with alanine at position 14 (E14A), already in the entry
T8 peptide: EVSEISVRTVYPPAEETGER

[9] = target: T9, GP5-15 (human, biotin at the N-terminus)
T9 construct: GP5 with alanine at position 15 (E15A), already in the entry
T9 peptide: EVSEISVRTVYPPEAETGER

[10] = target: T10, GP5-16 (human, biotin at the N-terminus)
T10 construct: GP5 with alanine at position 16 (E16A), already in the entry
T10 peptide: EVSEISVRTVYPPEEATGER

[11] = target: T11, GP5-17 (human, biotin at the N-terminus)
T11 construct: GP5 with alanine at position 17 (T17A), already in the entry
T11 peptide: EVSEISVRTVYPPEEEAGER

[12] = target: T12, GP5-18 (human, biotin at the N-terminus)
T12 construct: GP5 with alanine at position 18 (G18A), already in the entry
T12 peptide: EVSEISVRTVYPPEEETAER

[13] = target: T13, GP5-19 (human, biotin at the N-terminus)
T13 construct: GP5 with alanine at position 19 (E19A), already in the entry
T13 peptide: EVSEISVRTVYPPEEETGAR

[14] = target: T14, GP5-20 (human, biotin at the N-terminus)
T14 construct: GP5 with alanine at position 20 (R20A), already in the entry
T14 peptide: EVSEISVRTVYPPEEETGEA

[15] = target: T15, GP5-1 (human, biotin at the N-terminus)
T15 construct: GP5 with alanine at position 1 (E1A), already in the entry
T15 peptide: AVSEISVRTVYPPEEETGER

[16] = target: T16, GP5-2 (human, biotin at the N-terminus)
T16 construct: GP5 with alanine at position 2 (V2A), already in the entry
T16 peptide: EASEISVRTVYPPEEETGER

[17] = target: T17, GP5-3 (human, biotin at the N-terminus)
T17 construct: GP5 with alanine at position 3 (S3A), already in the entry
T17 peptide: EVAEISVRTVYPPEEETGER

[18] = target: T18, GP5-4 (human, biotin at the N-terminus)
T18 construct: GP5 with alanine at position 4 (E4A), already in the entry
T18 peptide: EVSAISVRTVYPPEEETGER

[19] = target: T19, GP5-5 (human, biotin at the N-terminus)
T19 construct: GP5 with alanine at position 5 (I5A), already in the entry
T19 peptide: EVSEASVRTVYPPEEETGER

[20] = target: T20, GP5-6 (human, biotin at the N-terminus)
T20 construct: GP5 with alanine at position 6 (S6A), already in the entry
T20 peptide: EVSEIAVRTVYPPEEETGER

binding signal (ELISA) [1]: 7180 | binding signal (ELISA) [2]: 7360 | binding signal (ELISA) [3]: 7280 | binding signal (ELISA) [4]: 337 | binding signal (ELISA) [5]: -1 | binding signal (ELISA) [6]: 282 | binding signal (ELISA) [7]: 2000 | binding signal (ELISA) [8]: 9 | binding signal (ELISA) [9]: 366 | binding signal (ELISA) [10]: 3390 | binding signal (ELISA) [11]: 6250 | binding signal (ELISA) [12]: 6290 | binding signal (ELISA) [13]: 4580 | binding signal (ELISA) [14]: 6850 | binding signal (ELISA) [15]: 5310 | binding signal (ELISA) [16]: 6170 | binding signal (ELISA) [17]: 6160 | binding signal (ELISA) [18]: 4840 | binding signal (ELISA) [19]: 6780 | binding signal (ELISA) [20]: 6370
B1: TPP-5906 Fab (Fab, V domains shown)
VH: EVQLVQSGAEVKKPGASVKVSCKASGYTFTTYTIHWVRQAPGQGLEWMGYINPSSGYTRYNPKFKGRVTMTRDKSTSTAYMELRSLRSDDTAVYYCQTGTRDYWGQGTTVTVSS
VL: DIQLTQSPSFLSASVGDRVTITCRASSSVSYIYWFQQKPGKAPKLLIYATSTLQSGVPSRFSGSGSGTEYTLTISSLQPEDFATYYCHQRNSFPYTFGQGTKLEIKR
notes: also called parental humanized and germlined 6C12 Fab
